# In patent publication US20250059285A1 (ARGENX, published 2025):
# B1: g23H09 (Fab) (Fab, V domains shown)
# VH: EVQLLESGGGLVQPGGSLRLSCAASGFTFRSYDMSWVRQAPGKGLEWVSAIAQFQHWTYYADSVKGRFTISRDNSKNTLYLQMNSLRAEDTAVYYCATTHGIGTLGFGSWGQGTLVTVSS
# VL: SYELTQPLSVSVALGQTARITCDGNNIGSKSAQWYQQKPGQAPVLVIYADEYRPEGIPERFSGSNSGNTATLTISRAQAGDEADYYCQVWDGSAAVFGGGTQLTVL
# notes: same VH/VL
# What was measured:
# [1] = molecular target: T1, recombinant human Charcot-Leyden crystals (crystalline galectin-10) (human, UniProt Q05315 2-142, limits assumed); assay: cell-based or functional assay
# T1 sequence: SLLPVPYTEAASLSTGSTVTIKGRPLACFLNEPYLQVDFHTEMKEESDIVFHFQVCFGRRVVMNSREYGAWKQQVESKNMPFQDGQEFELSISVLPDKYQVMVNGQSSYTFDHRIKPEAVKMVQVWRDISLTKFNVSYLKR
# human Gal10-His [2] = molecular target: T2, human Gal10-His (human, UniProt Q05315 2-142, limits assumed); assay: SPR, summary table, human Gal10
# T2 construct: also called hGal10-His; human Gal10-His tagged; not shown: His tag
# T2 sequence: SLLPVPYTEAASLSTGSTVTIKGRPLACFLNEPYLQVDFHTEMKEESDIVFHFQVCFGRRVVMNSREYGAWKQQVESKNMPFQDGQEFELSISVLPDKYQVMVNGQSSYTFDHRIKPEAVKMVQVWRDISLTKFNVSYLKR
# [3] = molecular target: T3, cynomolgus Gal10-His (WGS isoform) (cynomolgus); assay: SPR, summary table, cynomolgus_WGS Gal10
# T3 construct: also called cynomolgus antigen
# human Gal10-His [4] = molecular target: T2, human Gal10-His; assay: SPR against T0 reference; sample 4 weeks at 37 C
# Procedure: The functional active concentration of the candidates was then assessed by SPR on a Biacore 3000 instrument (FIG. 4). All samples were evaluated with methods meeting the standard qualification criteria. Aliquots were tested at predefined test concentrations against titration curves from reference samples (T0, −80° C. storage) and in the presence of quality control (QC) samples covering a range of 70-130% relative activity (% RA) towards the reference material.
# comparison/reference ⁽¹⁾ samples correspond to aliquots kept at +37° C. for 4 weeks ⁽²⁾ samples correspond to aliquots kept at +5° C. for 4 weeks prior to nebulization. In brief, samples were nebulized with an Aerogen Solo active vibrating mesh nebulizer that converted a drug solution into an inhalable aerosol. Three different devices for each time-point were used per clone and results are reported by the device (nebulizer) serial number. In case of device fouling, indicated by longer nebulization times […]
# human Gal10-His [5] = molecular target: T2, human Gal10-His; assay: SPR Biacore 3000, purified hFab on captured Gal10-His
# Procedure: The binding properties of the selected Fab clones to human Gal10 were analyzed via a capture method established on a Biacore 3000 instrument. Two concentrations of the selected Fab clones were tested on human Gal10-His immobilized on a CM5 chip coated with a monoclonal anti-His. As controls, the clone g7B07 and g7B07_N53A were injected at the beginning and the end of the run. Briefly, a CM5 chip was coated with a monoclonal anti-His antibody (4000 RU), then a fixed concentration of the human Gal10-His (25 μg/mL) was captured on the anti-His chip before receiving two concentrations of the clones in the human Fab backbone.
# human Gal10-His [6] = molecular target: T2, human Gal10-His; assay: summary of periplasmic extract screening (BLI or SPR)
# human Gal10-His [7] = molecular target: T2, human Gal10-His; assay: SPR slope against calibrators on captured Gal10-His; T0 sample
# Procedure: The binding properties of the seven selected clones following two weeks of temperature stress was analysed using an optimized capture method on a Biacore 3000 instrument. The binding properties of the stressed samples were determined, compared to the calibration point, and expressed as a percentage of Relative Activity (% RA).
# Briefly, a capture method was set-up on a Biacore 3000 instrument. For this purpose, a CM5 chip was coated with a monoclonal anti-His antibody (4000 RU), then a fixed concentration of the human Gal10-His (25 μg/mL) was captured on the anti-His chip before receiving duplicate injections of the calibrators, QC samples and temperature stressed samples of each clone. The slope of each injected sample was then calculated using the BIA evaluation software. Concentrations of the QC samples and temperature stressed samples were back-calculated by interpolating the obtained slopes of these samples to the calibrator curve. Obtained values were within +/−20% of the nominal concentration of the tested samples and are expressed as average relative accuracy (avg % RA) (Table 13).
# human Gal10-His [8] = molecular target: T2, human Gal10-His; assay: SPR Biacore 3000, hFab on human Gal10-His captured by anti-His CM5
# human Gal10-His [9] = molecular target: T2, human Gal10-His; assay: competition ELISA on coated Gal10-His; hFab 20 ug/mL, competitor g7B07-hFab-Biot, streptavidin-HRP
# Procedure: An epitope binning analysis of the humanized Fab clones was carried out in comparison with the humanized Fab of g7B07.
# For this experiment, a sub-optimal concentration of the biotinylated clone g7B07-humanized Fab was added to the Gal10 coated plate and pre-incubated with the selected clones. The percentage competition with g7B07 was then determined (Table 17). Motavizumab (Mota) in a human Fab backbone was used as a negative control (0% competition). Clone g7B07 was used as the positive control for competition and was therefore set as the 100% competition value. The anti-human specific clone 1D11 (binding to Tyrosine 69 residue) was included in the tested panel as a negative control for competition with 7B07 for Gal10 binding because it was known that clone 1D11 binds to the opposite side of Gal10 (including Tyrosine 69).
binder,measurement,setting,value
B1,"recGal10 crystal dissolution EC50 (T2 h), Assay 1, nebulized",[1],297 µg/mL
same,"recGal10 crystal dissolution EC50 (T2 h), Assay 1, stressed (4 W at 37 C)",[1],361 µg/mL
same,"recGal10 crystal dissolution EC50 (T2 h), Assay 1, unstressed (T0)",[1],252 µg/mL
same,"recGal10 crystal dissolution EC50 (T2 h), Assay 2, nebulized",[1],209 µg/mL
same,"recGal10 crystal dissolution EC50 (T2 h), Assay 2, stressed (4 W at 37 C)",[1],191 µg/mL
same,"recGal10 crystal dissolution EC50 (T2 h), Assay 2, unstressed (T0)",[1],190 µg/mL
same,Kd,human Gal10-His [2],5.34 nM
same,koff,human Gal10-His [2],0.0031 s⁻¹
same,Kd,[3],9.9 nM
same,koff,[3],0.0095 s⁻¹
same,% relative activity by SPR,human Gal10-His [4],93%
same,fold better affinity than g7B07,human Gal10-His [5],2.8 fold
same,"kd, fold compared to g7B07 (BLI or SPR)",human Gal10-His [6],2.5 fold
same,% Relative Activity (RA) on Biacore,human Gal10-His [7],98%
same,Amplitude R0,human Gal10-His [8],722 RU
same,koff,human Gal10-His [8],0.0031 s⁻¹
same,kon,human Gal10-His [8],590000 M⁻¹ s⁻¹
same,% Competition against g7B07-Biot,human Gal10-His [9],94.3%
same,Mean OD value,human Gal10-His [9],0.31 OD
